From patent publication US7666644B2, “Glyphosate-N-acetyltransferase (GAT) genes” (Verdia, Inc., priority 2004, dated 2010)

Columns and labels:
[1] = tested on: soybeans expressing GAT and HRA transgenes; experiment: T1 pre-emergence sulfonamide spray of soybeans expressing GAT and HRA transgenes; assay type: in vivo, soybean; parameters: key: 9=no leaf/stem discoloration; 7=minor leaf/stem discoloration; 5=worse leaf/stem discoloration; 3=severely discolored plant or dying plant; 1=dead plant; details: 70 gms a.i./hectare, 10 days post spray, all HRA and GAT events
Experimental: T1 seed generated from experiments as described in Example 17, were planted in pots of Tama Silt loam in the greenhouse. Pots were immediately sprayed with a pre-emergence application of chlorimuron, rimsulfuron or tribenuron at a rate of 70 gms a.i./hectare. Germinating plants were evaluated 10 days post spray application based on plant discoloration scores described in Example 17. All HRA and GAT events survived all pre-emergence spray applications with a rating of 9 (uninjured).

[2] = tested on: soybeans expressing GAT and HRA transgenes; experiment: T1 post-emergence sulfonamide spray of soybeans expressing GAT and HRA transgenes; assay type: in vivo, soybean; details: GAT (SEQ ID NO: 824)/SAMS promoter-HRA events
Experimental: T1 seed generated from experiments as described in Example 17 were germinated in RediEarth^R 360 medium in the greenhouse. Plants were sprayed at the V2-V3 stage (14 days after potting) with thifensulfuron, chlorimuron, rimsulfuron or tribenuron (70, 70, 35, 35 gm a.i./hectare, respectively). Plants were evaluated 10 days post application based on plant discoloration scores described in Example 17.
Events having a plant discoloration rating 7 or 8 after thifensulfuron spray were sprayed with either a 2× or 4× application of glyphosate after 10 days as per methods described in Example 17. Events were evaluated based on discoloration scores described in Example 17. All thifensulfuron tolerant events survived the glyphosate spray with score of 7 or 8 (results not shown).

O=C(O)CNCP(=O)(O)O = experiment: Standard spectrophotometric kcat and KM determination (Example 7); assay type: biochemical; details: other: 20 mM HEPES pH 6.8, 10% ethylene glycol, 0.2 mM acetyl CoA, about 23° C.
Experimental: KM was calculated from the initial reaction rates obtained from concentrations of glyphosate ranging from 0.125 to 10 mM, using the Lineweaver-Burke transformation of the Michaelis-Menten equation. kcat/KM was determined by dividing the value determined for kcat by the value determined for KM.

tobacco plants = experiment: Herbicide spray tests of GAT expressing tobacco plants; assay type: in vivo, Nicotiana tabacum; details: for outcome two weeks after glyphosate spray: 0.5, 2 or 4× glyphosate (1× = 32 oz/acre of 40% ai), clonally propagated events, average of 5 leaves; for outcome after second spray with an 8× dose: 8× glyphosate three weeks later
Experimental: Tobacco shoots generated as described in EXAMPLE 9 were excised from the explants and transferred to basal root induction (BRI) medium composed of half-strength Murashige and Skoog (MS) medium, pH 5.7, with 1.5% sucrose, 0.3% Gelrite, 0-200 uM glyphosate and 400 ug/ml Timentin. Rooted plants and axillary shoots were clonally propagated by cutting the stem and transferring it to fresh BRI medium until the desired number of clones was obtained. Rooted plants were carefully removed from the solid medium. Prior to placing the plants into small pots of soil, the roots were washed to remove any remaining Gelrite. A protective plastic cover was kept over the plants for at least one week until the plants were well established.
To determine if GAT expressing tobacco plants could tolerate simulated field rate sprays of glyphosate, clonal lines of several events per GAT variant were tested. A typical test was set up as follows: One clone from each event was sprayed with 1 ml of solution containing the isopropylamine salt of glyphosate (Sigma P5671) and 0.125% Triton X-100, pH 6.8 such that the amount of active ingredient sprayed was equivalent to that present in commercial glyphosate products. For example, to achieve 32 oz/acre (1×) of herbicide containing 40% active ingredient (“ai”), 2.4 ul of 40% ai formulation was diluted into 1 ml water and sprayed on a plant in a 4-inch square pot (16 in^2). A mock application (0×) with surfactant only was also included. In some cases a second spray was applied 1-4 weeks later. Plants were kept in controlled growth rooms at 25° C. and 70% humidity with 16 hr light.
Seed-grown wild type plants were also sprayed. […] All 0× plants were healthy, including the non-GAT control plants. Three weeks later all of the surviving plants were sprayed with an 8× dose.

[3] = Transfer of the propionyl group from propionyl CoA to glyphosate, DTNB detection; assay type: biochemical; details: 1 mM propionyl CoA, 5 mM glyphosate or no glyphosate, 30 minutes
Experimental: The ability of GAT variants (B6 (SEQ ID NO:7), 0—6D10 (SEQ ID NO:448), 17-15H3 (SEQ ID NO:601), and 20-8H12c (SEQ ID NO:817)) to transfer the propionyl group from propionyl CoA to glyphosate was tested in reaction mixtures containing 5 mM glyphosate or no glyphosate. Propionyl CoA was present at 1 mM. After 30 minutes the reactions were terminated and the presence of free […] was determined by the addition of DTNB.

soybean plants = experiment: T0 soybean greenhouse glyphosate spray, plant discoloration scores; assay type: in vivo
Experimental: Soybean plants expressing GAT variant transgenes were produced using the method of particle gun bombardment (see Klein et al. (1987) Nature 327:70-73) using a DuPont Biolistic PDS1000/He instrument. The selection agent used during the transformation process was hygromycin. Either the hygromycin selectable marker gene remained in the transgenic events or the hygromycin gene was excised by methods known in the art. DNA fragments were prepared with a synthetic constitutive promoter, a GAT variant and PinII terminator. The selectable marker gene, comprising the 35S CaMV promoter, HPT gene and NOS terminator, was cobombarded with the GAT gene variant as described above. Bombarded soybean embryogenic suspension tissue was cultured for one week in the absence of selection agent. Embryogenic suspension tissue was placed in liquid selection medium for 6 weeks. Putative transgenic suspension tissue was sampled for PCR analysis to determine the presence of the GAT gene. Putative transgenic suspension culture tissue was maintained in selection medium for 3 weeks to obtain enough tissue for plant regeneration. Suspension tissue was matured for 4 weeks using standard procedures; matured somatic embryos were desiccated for 4-7 days and then placed on germination induction medium for 2-4 weeks. Germinated plantlets were transferred to soil in cell pack trays for 3 weeks for acclimatization. Plantlets were potted to 10-inch pots in the greenhouse for evaluation of glyphosate resistance.
To determine the level of glyphosate resistance of transgenic soybeans expressing the GAT variant transgenes, T0 plants were sprayed with glyphosate (Roundup ULTRA MAX™) in the greenhouse. Plant resistance levels were evaluated by […] • 7=minor leaf/stem discoloration • 5=worse leaf/stem discoloration • 3=severely discolored plant or dying plant • 1=dead plant
One to four plants were sent to the greenhouse from each independent transgenic event. An additional 1-2 plants per event were grown in controlled environment growth chambers for seed production and were not sprayed with glyphosate. The greenhouse plants were sprayed at 1×, 2× or 4× glyphosate (1× glyphosate=26 ounces/acre of RoundUp ULTRA MAX™) 3-4 weeks after transfer to soil. The T0 plant discoloration scores with 2× and 4× spray rates are shown in Table 10 and Table 11, respectively.

maize plants = experiment: Effect of temperature variation on glyphosate tolerance of T1 maize expressing GAT transgenes; assay type: in vivo; details: cool/cold, warm and hot conditions, 0×, 4×, 6×, 8× glyphosate at V2, scored 5 and 14 days
Experimental: Maize plants expressing GAT variant transgenes 10—4F2 (SEQ ID NO:203), 17-15H3 (SEQ ID NO:549), and 18-28D9b (SEQ ID NO:814) were produced using the methods described in Example 13. The effect of temperature on glyphosate tolerance was evaluated in T1 plants. The T1 plants were grown in cool/cold (day 14° C., night 8° C.), warm (day 28° C., night 20° C.), and hot (day 37° C., night 20° C.) conditions. T1 plants were sprayed at V2 with four different glyphosate spray treatments (0×, 4×, 6×, and 8×). Plants were scored at 5 and 14 days after treatment for leaf discoloration and plant height comparisons as described in Example 13.

[4] = 35 gm a.i./ha post-emergence at V2-V3, 10 days after treatment
[5] = 70 gm a.i./ha post-emergence at V2-V3, 10 days after treatment

With `CCS(=O)(=O)c1cccnc1S(=O)(=O)NC(=O)Nc1nc(OC)cc(OC)n1` [Rimsulfuron] the plant discoloration rating [1] was 9 and the “Average Resistance scores” value [2, 4] was 2.21.

In the case of `COc1cc(Cl)nc(NC(=O)NS(=O)(=O)c2ccccc2C(=O)O)n1` [Chlorimuron], the plant discoloration rating [1] is reported as 9 and the “Average Resistance scores” value [2, 5] is reported as 7.75.

For `COc1nc(C)nc(N(C)C(=O)NS(=O)(=O)c2ccccc2C(=O)O)n1` [Tribenuron], the plant discoloration rating [1] was 9 and the “Average Resistance scores” value [2, 4] was 3.83.

“GAT polypeptide (glyphosate-N-acetyltransferase), SEQ ID NO:300 (Bacillus licheniformis DSM 13 = ATCC 14580; A39T/E119K/E67Q/E68K/H57N/I132T/I135V/K58Q/L35S/S62P/V114A)” showed a Km (O=C(O)CNCP(=O)(O)O) of 650 µM and a kcat (O=C(O)CNCP(=O)(O)O) of 4.93 s⁻¹.

For `COc1nc(C)nc(NC(=O)NS(=O)(=O)c2ccsc2C(=O)O)n1` [Thifensulfuron], the “Average Resistance scores” value [2, 5] was 7.81.

Work on “GAT polypeptide (glyphosate-N-acetyltransferase), SEQ ID NO:457 (Bacillus licheniformis DSM 13 = ATCC 14580; A28V/E119K/E65Q/E67Q/E68K/G37R/I132T/I135V/I15L/I2L/K101R/K144R/K58Q/L145I/L97I/R18K/R92K/T89S/V114A/Y130F/Y45F)” yielded a Km (O=C(O)CNCP(=O)(O)O) of 100 µM and a kcat (O=C(O)CNCP(=O)(O)O) of 1.97 s⁻¹.

B1: 0—6D10: evolved GAT; gene SEQ ID NO:196, enzyme SEQ ID NO:448 (protein)
chain: MLEVKPINAEDTYELRHKILRPNQPLEVCMYETDLLRGAFHLGGFYRGKLISIASFHQAEHSDLQGQKQYQLRGMATLEGYRDQKAGSSLIRHAEQILRKRGADMLWCNARTSASGYYKKLGFSEQGEVFETPPVGPHILMYKRLT
modifications: 0_6D10
In the case of B1, the “outcome two weeks after glyphosate spray” value (tobacco plants) is reported as “survived the spraying procedure without signs of glyphosate damage”, the “outcome after second spray with an 8× dose” value (tobacco plants) is reported as “survived” and the “glyphosate-dependent hydrolysis of propionyl CoA” value [3] is reported as “showed glyphosate-dependent hydrolysis of propionyl CoA”.

B2: 0—5D3: evolved GAT gene, SEQ ID NO:193 (nucleic acid)
DNA: ATGCTAGAGGTGAAACCGATTAACGCAGAGGATACCTATGAACTAAGGCATAGAATACTCAGACCAAACCAGCCGATAGAAGCGTGTATGTATGAAAGCGATTTACTTCGTGGTGCATTTCACTTAGGCGGCTATTACAGGGGCAAACTGATTTCCATAGCTTCATTCCACCAGGCCGAGCACTCAGAACTCCAAGGCCAGAAACAGTACCAGCTCCGAGGTATGGCTACCTTGGAAGGTTATCGTGAGCAGAAAGCGGGATCGAGTCTAATTAAACACGCTGAAGAAATTCTTCGTAAGAGGGGGGCGGACTTGCTTTGGTGTAATGCGCGGACATCCGCCTCAGGCTACTACAAAAAGTTAGGCTTCAGCGAGCAGGGAGAGATATTTGAAACGCCGCCAGTAGGACCTCACATCCTGATGTATAAAAGGATCACATAA
modifications: Synthetic nucleic acid sequence; 0_5D3
With B2 the “outcome two weeks after glyphosate spray” value (tobacco plants) was “survived the spraying procedure without signs of glyphosate damage”, the “outcome after second spray with an 8× dose” value (tobacco plants) was “survived” and the “% EVENTS @ 3-6” value (soybean plants; 10 days after 2X glyphosate) was 11% (3). For the same molecule, the “% EVENTS @ 7-8” value (soybean plants; 10 days after 2X glyphosate (1× = 26 ounces/acre)) was 15% (4).

B3: 20-8H12c: GAT variant, SEQ ID NO:817 (protein)
chain: MIEVKPINAEDTYELRHRVLRPNQPIEACIFESDLMRGAFHLGGFYGGRLISVASFHQAEHSELQGQKQYQLRGMATLEGYREQKAGSSLVKHAEEILRKRGADLLWCNARTSASGYYKKLGFSEQGEVFDTPPVGPHILMYKRIT
modifications: 20-8H12c
In the case of B3, the “glyphosate-dependent hydrolysis of propionyl CoA” value [3] is reported as “showed glyphosate-dependent hydrolysis of propionyl CoA”.

B4: 10—4F2: evolved GAT; enzyme SEQ ID NO:454, transgene printed as SEQ ID NO:203 (protein)
chain: MLEVKPINAEDTYELRHRILRPNQPIEACMFESDLLRGAFHLGGFYRGKLISIASFHQAEHSELQGQKQYQLRGMATLEGYREQKAGSSLIRHAEEILRKRGADMLWCNARTSASGYYKKLGFSEQGEIFETPPVGPHILMYKRLT
modifications: 10_4F2
With B4 the “effect of growth temperature on glyphosate tolerance” value (maize plants) was “not adversely effected”.

B5: 18-28D9b: GAT variant transgene, SEQ ID NO:814 (nucleic acid)
DNA: ATGATAGAGGTGAAACCGATTAACGCAGAGGATACCTATGAACTAAGGCATAGAATACTCAGACCAAACCAGCCGATAGAAGCGTGTATGTTTGAAAGCGATTTACTTCGTGGTGCATTTCACTTAGGCGGCTTTTACAGGGGCAAACTGATTTCCATAGCTTCATTCCACCAGGCCGAGCACTCGGAACTCCAAGGCCAGAAACAGTACCAGCTCCGAGGTATGGCTACCTTGGAAGGTTATCGTGAGCAGAAAGCGGGATCAACTCTAGTTAAACACGCTGAAGAAATCCTTCGTAAGAGGGGGGCGGACATGCTTTGGTGTAATGCGCGGACATCCGCCTCAGGCTACTACAAAAAGTTAGGCTTCAGCGAGCAGGGAGAGATATTTGACACGCCGCCAGTAGGACCTCACATCCTGATGTATAAAAGGATCACATAA
modifications: Synthetic nucleic acid sequence; CDS (1)...(441); 18-28D9b
For B5, the “effect of growth temperature on glyphosate tolerance” value (maize plants) was “not adversely effected”.
